Here are results for 2 molecules from US20200405813A1 (SUTRO BIOPHARMA, published 2020).

The target of assay [1] is FolR1 (folate receptor alpha) on FolR1-positive KB or Igrov1 cells (UniProt P15328 25-234, limits assumed). Kind of assay: cell-based or functional assay.
The target of assay [2] is Muc16 on Muc16-positive OVCAR3 cells (UniProt Q8WXI7 1-14507, limits assumed). Kind of assay: cell-based or functional assay.

Chain of FolR1 (folate receptor alpha) on FolR1-positive KB or Igrov1 cells (P15328 25-234 limits assumed): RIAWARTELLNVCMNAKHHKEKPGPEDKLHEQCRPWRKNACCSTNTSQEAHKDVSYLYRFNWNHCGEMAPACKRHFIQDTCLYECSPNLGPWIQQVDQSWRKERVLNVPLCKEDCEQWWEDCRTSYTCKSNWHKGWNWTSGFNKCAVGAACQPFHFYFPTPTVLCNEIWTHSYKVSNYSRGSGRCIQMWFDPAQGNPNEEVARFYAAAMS

B1: Conjugate 1: anti-FolR1-Compd 101 ADC (FolRα antibody 1848-B10 ADC, DAR 4) (antibody, human IgG1, kappa, V domains shown)
VH: EVQLVESGGGLVQPGGSLRLSCAASGFNTTTKSIHWVRQAPGKGLEWVGEIYPRDGITDYADSVKGRFTISADTSKNTAYLQMNSLRAEDTAVYYCARGGWHWRSGYSYYLDYWGQGTLVTVSS
VL: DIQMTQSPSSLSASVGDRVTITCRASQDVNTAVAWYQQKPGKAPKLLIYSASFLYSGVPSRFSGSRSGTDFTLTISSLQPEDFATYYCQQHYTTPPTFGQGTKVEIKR
modifications: pAMF (para-azidomethyl-L-phenylalanine) at Y180 and F404 conjugated to Compound 101 (by Table 16; Tables 8 and 10 say Y180 and K42 sites)
Take B1: the “Cell Killing on FolR1+ Igrov1 Cells, EC50” value in assay [1] was 0.03 nM.

B2: Conjugate 49: anti-MUC16 sofituzumab+ Compd 401/Compd 101 (sofituzumab HC:4x pAMF iADC, 70% TLR agonist, DAR 3.9) (antibody, human IgG1, kappa, V domains shown)
VH: EVQLVESGGGLVQPGGSLRLSCAASGYSITNDYAWNWVRQAPGKGLEWVGYISYSGYTTYNPSLKSRFTISRDTSKNTLYLQMNSLRAEDTAVYYCARWTSGLDYWGQGTLVTVSS
VL: DIQMTQSPSSLSASVGDRVTITCKASDLIHNWLAWYQQKPGKAPKLLIYGATSLETGVPSRFSGSGSGTDFTLTISSLQPEDFATYYCQQYWTTPFTFGQGTKVEIKR
modifications: pAMF at Y180 and F404 conjugated to a mixture of Compound 401 and Compound 101
Take B2: the “Cell Killing on OVCAR3 (Muc16+), EC50” value in assay [2] came to 0.1.
